Laboratory results reported in article PMC9279156, “A peroxisomal ubiquitin ligase complex forms a retrotranslocation channel” (Nature, 2022).
Blank lines part the entries; values can stand above or below the binder they belong to.

Biological target: T1, T. thermophilus Pex12 (1–439) with an N-terminal SBP tag (Thermothelomyces thermophilus, UniProt G2Q5N0 1-439)
T1 construct: Pex12 of Thermothelomyces thermophilus, residues 1-439; codon-optimised synthetic gene; the SBP tag is followed by a HRV3C protease cleavage site; also called T.t; Pex12; source: P. pastoris SMD1168, co-expressed with Pex2 and Pex10, purified (streptavidin resin, gel filtration) in digitonin; not shown: SBP, N-terminal, kept
T1 sequence (looked up): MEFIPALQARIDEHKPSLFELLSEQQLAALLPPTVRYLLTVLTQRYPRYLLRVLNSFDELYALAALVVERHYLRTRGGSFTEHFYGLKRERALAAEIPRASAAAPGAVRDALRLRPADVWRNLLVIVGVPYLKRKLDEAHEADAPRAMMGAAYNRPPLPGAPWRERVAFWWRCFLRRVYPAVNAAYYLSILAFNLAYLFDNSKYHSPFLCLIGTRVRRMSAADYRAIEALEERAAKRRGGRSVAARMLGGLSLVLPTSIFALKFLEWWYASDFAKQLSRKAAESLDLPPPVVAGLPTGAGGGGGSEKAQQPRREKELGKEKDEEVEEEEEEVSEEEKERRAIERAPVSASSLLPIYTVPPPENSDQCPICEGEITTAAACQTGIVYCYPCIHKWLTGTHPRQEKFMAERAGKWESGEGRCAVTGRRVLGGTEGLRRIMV
Assay: pull-down + SEC; Pex2, Pex10 and SBP-Pex12 co-expressed in P. pastoris; membranes solubilised in 1% LMNG; captured on streptavidin resin through SBP-Pex12, eluted with biotin, gel filtration (Superose 6) in 25 mM HEPES pH 7.4, 150 mM NaCl, 0.05% digitonin; fractions by SDS-PAGE and Coomassie staining
Conditions: partners not purified

- stoichiometry N: 1
B1: T. thermophilus Pex10 (1–454) (natural protein, Thermothelomyces thermophilus, UniProt G2Q0E2 1-454, looked up)
chain: MATQPPPARPPPPLTSSPYPYAAAPDIIRAHQKDAYFQGVLANRLSDLHRRLRGARSAHAWAAETRTFAAALYLCLTTLLGNRTLGEEYCDLVQVEEAPSKLFASSSSKAADDHIYENGLGGGGDGGPLLPSLPRRAGYILTAIVLPHLASRALPSVRSAIRKRLQSRLATLSRRRQQTGTKSGSGRGGRGGGGGITEYRVLRYLLTHLTPLTSGAHFRAATLAVFYFTGAYYELSKWVWGLRYVFTTRAGRVVDDDHNRHHHSPQHGGGNGGRAGYEVLGVLLVVQMAVRAWLHVREQLSSGSVAGGGGEEEEDGEDGFRERTAFGPGTNVDVSLDEHAFTSNNELLGGGGGGGGSSSQRSLGEIGAMAHTPVLKAGRARYDLGTSDKVMGWIKGAQQRKCTLCLEELKDPAATQCGHVFCWACIGDWVREKPECPLCRREAMVQHILPLRAA
notes: Pex10 of Thermothelomyces thermophilus, residues 1-454; codon-optimised synthetic gene; also called T.t; Pex10; source: P. pastoris SMD1168, co-expressed with Pex2 and Pex12, purified (streptavidin resin, gel filtration) in digitonin

- stoichiometry N: 1
B2: T. thermophilus Pex2 (140–495) (domain or fragment, Thermothelomyces thermophilus, UniProt G2Q1C9 140-495, looked up)
chain: SREGTRPAFRVGQVDAELLDEELVELLRGQVREALRYVGGGGGGGGGGGGGGVGSGVAQDWEAEISLALRAVLFKLTVWDHDATYGAALQNLKYTDARRDGPALAPPSRWQKALYGLVTVGGRYLWAKWEDWLLEQDDGFEGPSPRVKRLARWTSALSTLHASAALVSFLVFLLHGRYRTLLDRLLRMRLAPPTSQVSREVSFEYLNRQLVWHAFTEFLLFVLPLVGINRWRRWLARTWRRTKKIMTADADGGAGDKKGEYSFLPERTCAICYRDQNSASSETELLAAASGGVVGSAQTDITNPYEAIPCGCTYCFVCLATRIEREEGEGWPCLRCGELIKECKPWNGDVLEEPQV
notes: Pex2 of Thermothelomyces thermophilus, residues 140-495; codon-optimised synthetic gene; also called T.t; Pex2; source: P. pastoris SMD1168, co-expressed with Pex10 and Pex12, purified (streptavidin resin, gel filtration) in digitonin
